Test results taken from PMC9876287, “Characterization of a new CCCTC-binding factor binding site as a dual regulator of Epstein-Barr virus latent infection”.

Target: T1, CTCF (UniProt P49711 1-727)
T1 sequence: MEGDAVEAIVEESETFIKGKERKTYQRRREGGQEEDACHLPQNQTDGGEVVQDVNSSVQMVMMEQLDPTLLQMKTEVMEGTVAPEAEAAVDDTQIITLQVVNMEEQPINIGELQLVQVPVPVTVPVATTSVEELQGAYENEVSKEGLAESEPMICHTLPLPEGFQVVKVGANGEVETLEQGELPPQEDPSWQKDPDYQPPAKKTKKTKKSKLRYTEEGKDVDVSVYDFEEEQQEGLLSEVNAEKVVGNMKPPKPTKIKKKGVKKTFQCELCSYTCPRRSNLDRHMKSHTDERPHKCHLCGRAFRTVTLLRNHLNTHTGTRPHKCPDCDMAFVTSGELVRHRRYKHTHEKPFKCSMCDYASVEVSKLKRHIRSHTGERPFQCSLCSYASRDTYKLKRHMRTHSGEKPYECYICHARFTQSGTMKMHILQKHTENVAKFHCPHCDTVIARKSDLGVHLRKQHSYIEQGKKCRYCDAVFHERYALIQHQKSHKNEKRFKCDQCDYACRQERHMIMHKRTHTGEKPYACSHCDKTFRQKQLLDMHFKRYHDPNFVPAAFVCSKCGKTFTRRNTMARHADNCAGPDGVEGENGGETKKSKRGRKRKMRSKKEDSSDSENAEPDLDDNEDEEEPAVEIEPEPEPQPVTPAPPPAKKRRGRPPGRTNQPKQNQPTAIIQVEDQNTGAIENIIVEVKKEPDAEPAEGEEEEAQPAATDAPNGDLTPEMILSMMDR
Experiment: MST; sonicated salmon sperm DNA competitor (2000 ng); MST: 125 nM DNA, 0-12.5 uM protein, 1X EMSA buffer (from 4X: 100 mM KCl, 20 mM HEPES pH 8.0, 0.2 mM EDTA, 20% glycerol) with 1 mM DTT (fresh), salmon sperm DNA; 60 min on ice
Details: protein: recombinant; tags: His; label: 5' FAM (5-carboxyfluorescein) on forward strand; blunt

B1: Wt S13 49-mer (dsDNA)
DNA 1: TTTGTTAATCTTTAGTGGGAACTAGTGGGAGTGCTGTGCCTCGGGTACC
DNA 2: GGTACCCGAGGCACAGCACTCCCACTAGTTCCCACTAAAGATTAACAAA
- Kd: 4.8 ± 2.3 µM
